Measured values taken from article PMC10766394.

Target: anti-VEEV human IgG1 antibody F5 with the loss of function Fc mutations L234A and L235A (hF5-LALA) (human)
Test: ELISA

For “mouse complement component C1q from normal mouse serum (from UniProt P98086;P14106;Q02105) (complex)”, the fold reduction in binding against hF5-WT at 2.8 µg/ml was 5.1 fold.
